What was measured:
[1] = tested on: COLO 205 tumors; test: COLO 205 xenograft therapy; conditions: 0.4 mg/kg, q4dx8; 28-day treatment period
[2] = storage stability of lyophilized IMMU-132; assay type: physicochemical
[3] = Phase I/II clinical trial of IMMU-132, pharmacokinetics; conditions: for serum hRS7 IgG, Max / serum hRS7 IgG, Min / serum intact ADC, Max / serum intact ADC, Min / serum hRS7 IgG, Mean / serum intact ADC, Mean: 0.5 h after first dose
Method: SN-38 was measured by HPLC.
Blood samples were taken within ˜30 min from the end of the infusion (e.g., peak) and then prior to each subsequent injection (e.g., trough). […] Serum samples from seven patients also were assayed for SN-38 content, both total (representing SN-38 bound to the IgG and free) and free SN-38 (i.e., unbound SN-38).

[4] = tested on: Capan-1 human pancreatic cancer xenografts; conditions: 1 and 6 h
[5] = tested on: NCI-N87 human gastric tumors; test: NCI-N87 xenograft therapy (FIG. 23); conditions: 0.35 mg twice weekly for four weeks
[6] = tested on: urothelial cancer; test: Phase I/II clinical trial of IMMU-132, urothelial; assay type: in vivo, human; conditions: 11 assessable patients, 8 or 10 mg/kg
[7] = tested on: MDA-MB-468 TNBC tumors; test: MDA-MB-468 TNBC xenograft therapy; assay type: in vivo, nude mice; conditions: one animal each, tumors progressed after irinotecan
[8] = tested on: colorectal cancer; test: Phase I/II clinical trial of IMMU-132, CRC; assay type: in vivo, human
[9] = tested on: HCC1395 (Trop-2−); test: dsDNA breaks, rH2AX flow cytometry; assay type: cell-based, human; conditions: untreated baseline 122

hRS7 IgG
tumor volume (TV) [1]: 1.77±0.93 cm^3

IMMU-132
stability once prepared and lyophilized [2]: stable for several years | serum hRS7 IgG, Max ([3]; 8 mg/kg): 249.0 µg/mL | serum hRS7 IgG, Min ([3]; 8 mg/kg): 96.0 µg/mL | serum intact ADC, Max ([3]; 8 mg/kg): 169.3 µg/mL | serum intact ADC, Min ([3]; 8 mg/kg): 95.0 µg/mL | serum hRS7 IgG, Mean ([3]; 8 mg/kg, N 7): 193.1 µg/mL | serum intact ADC, Mean ([3]; 8 mg/kg, N 7): 141.5 µg/mL | serum hRS7 IgG, Max ([3]; 10 mg/kg): 285.85 µg/mL | serum hRS7 IgG, Min ([3]; 10 mg/kg): 152.00 µg/mL | serum intact ADC, Max ([3]; 10 mg/kg): 237.39 µg/mL | serum intact ADC, Min ([3]; 10 mg/kg): 144.00 µg/mL | serum hRS7 IgG, Mean ([3]; 10 mg/kg, N 5): 203.35 µg/mL | serum intact ADC, Mean ([3]; 10 mg/kg, N 5): 185.77 µg/mL | serum hRS7 IgG, Max ([3]; 12 mg/kg): 400.0 µg/mL | serum hRS7 IgG, Min ([3]; 12 mg/kg): 168.9 µg/mL | serum intact ADC, Max ([3]; 12 mg/kg): 311.0 µg/mL | serum intact ADC, Min ([3]; 12 mg/kg): 98.0 µg/mL | serum hRS7 IgG, Mean ([3]; 12 mg/kg, N 9): 239.2 µg/mL | serum intact ADC, Mean ([3]; 12 mg/kg, N 9): 183.3 µg/mL | serum hRS7 IgG, Max ([3]; 18 mg/kg): 499.00 µg/mL | serum hRS7 IgG, Min ([3]; 18 mg/kg): 321.48 µg/mL | serum intact ADC, Max ([3]; 18 mg/kg): 423.00 µg/mL | serum intact ADC, Min ([3]; 18 mg/kg): 162.80 µg/mL | serum hRS7 IgG, Mean ([3]; 18 mg/kg, N 3): 409.16 µg/mL | serum intact ADC, Mean ([3]; 18 mg/kg, N 3): 258.27 µg/mL | SN-38 in serum bound to IgG, peak samples ([3]; 30 min after end of infusion): > 96% | SN-38 in serum bound to IgG ([3]; HPLC): > 95% | clearance of conjugate from serum ([3]; human, in vivo): ≤ 3 days | SN-38 bound to IgG, peak sample ([3]; one patient, 12 mg/kg): 4000 ng/mL | free SN-38, 30-min serum ([3]; patient 15): 88 to 102 ng/mL | free SN-38 as share of total SN-38 ([3]; patient 15): 2.4% to 3.6% | total SN-38, 30-min serum ([3]; patient 15, 6th cycle, 6.0 mg/kg): 2,381 ng/mL | total SN-38, 30-min serum ([3]; patient 15, C1D1, 12 mg/kg): 3,930 ng/mL | total SN-38, 30-min serum ([3]; patient 15, C1D2, 9.0 mg/kg): 2,947 ng/mL | SN-38G share of total SN-38+SN-38G ([3]; patient #25, 13.5 mg/kg): 11.6% | total SN-38 (acid-hydrolyzed), average ([3]; patient #25, 13.5 mg/kg, 11 peak samples): 3309.8 ± 601.8 ng/mL | SN-38G share of total unbound SN-38+SN-38G ([3]; patient #25, 18 mg/kg): 14.4% | free SN-38 (non-hydrolyzed) ([3]; patient #25, 18 mg/kg): 155.2 ng/mL | total SN-38 (acid-hydrolyzed) ([3]; patient #25, 18 mg/kg): 5,089 ng/mL | intact conjugate in trough samples ([3]; serum drawn immediately before next dose): no sacituzumab govitecan could be detected | free SN-38G lower than free SN-38 in serum [4]: 3- to 7 times | partial responders [5]: 6 of 7 | PR [6]: 6 | decrease in tumor size on re-treatment [7]: 60% | PD ([8]; of 18 assessable patients): 6 | PR ([8]; of 18 assessable patients): 1 | maximum reduction in target lesions ([8]; person, after 10 months): 65% | plasma CEA after treatment ([8]; person, from 781 ng/mL): 26.5 ng/mL | Median fluorescence intensity (rH2AX) [9]: 123

From patent US10954305B2 (Immunomedics, Inc., priority 2016, dated 2021)
